Laboratory results as given in patent publication US20090291083A1, “BARB4 TARGET, ANTIBODY DESIGNATED BARB4, BARB4 RELATED ANTIBODIES, AND METHODS OF MAKING AND USING SAME” (PATRYS LIMITED, priority 2008, published 2009).

Columns and labels:
Assay in all cases: MTT cell proliferation assay (Table 2)
Type in all cases: cell-based, human
[1] = system: BxPC-3; conditions: for IC50, BA4 (24 hr): MTT 24 hr post-treatment; for IC50, BA4 (48 hr): MTT 48 hr post-treatment
Protocol: (§1) BARB4 was also evaluated for inhibition of proliferation of other cancer cell lines, including BxPC-3, COLO 205, H460, MDA-MB-231 and MIAPaCa-2 cells, as well as HT-29, HCT-116, BxPC-3, PANC-1, A549, PC-3 and HCT116 cells. In brief, various human cancer cell lines obtained from the American Type Culture Collection (ATCC) were established using standard in vitro culture methods and ATCC recommended media in 175 cm2 BD tissue culture treated flasks. In particular, MDAMB-231 cultures were incubated in a humidified 37° C., 100% air incubator, and BxPC-3, COLO 205, H460 and MIAPaCa-2 cultures were incubated in a humidified 37° C., 5% CO2, 95% air incubator. Cultures were sub-cultivated regularly to maintain log phase growth. All cell lines were brought up from cryopreservation using the original recommended ATCC media type and supplements. Cell line specific seeding densities were based on historical data from MIR Preclinical Services for growth over a 72 hr period.
(§2) On the day of IC50 plate seeding, the adherent cells were removed from the flasks for each cell line using trypsin EDTA, 1× (Cell Gro #25-053-CI). Trypsin was deactivated using complete media and the cells were pooled (each line done separately). The pooled cells in complete media were counted using trypan blue exclusion with a Neubauer Bright-Line® hemacytometer. The percent viability for each cell line was as follows:
(§3) Based on live cell counts, each suspension was then diluted in complete media (containing required supplements) to achieve the desired seeding density for each cell line. Once seeded, the cells were allowed to attach to the plates overnight and then treated with BA4 or cisplatin 24 hr post-seeding.
(§4) BARB4 was serially diluted 1:2 (2× final conc. in dilution reservoir=1600 μg/ml) in media to achieve a final 800 μg/ml starting concentration in the top dosage wells of the treatment plate by diluting 1:2 when transferred from the reservoir to the treatment plate. Antibody was added to columns 1 through 10 of the treatment plate. Column 11 was for cells+media only control and column 12 was for a media only blank. Cisplatin (positive control) was manufactured by Sigma (# M4394, lot 087K1349) and supplied as a fine, dark yellow powder, in an amber vial, stored at room temperature and housed in a covered box to prevent exposure to light. Cisplatin was previously dissolved in 0.9% saline to make a clear, colorless 4 mM stock solution, aliquoted and frozen at −20° C. Frozen aliquots were quickly thawed by holding the tubes in hand, placed on wet ice and diluted (2× conc. dilution reservoir) to achieve a final 1 mM starting concentration in the top dosage wells of the treatment plate (diluted 1:2 when transferred from the dilution reservoir to the treatment plate). Serial dilutions of 1:4 were made from wells 1 through 10 of the dilution reservoir prior to transfer to the treatment plate.
(§5) The BARB4 stock solution (10.5 mg/ml) was prepared by dilution in complete media according to the table below for a final starting treatment concentration of 800 μg/ml. The 4 mM stock solution of cisplatin in 0.9% saline was diluted in complete media for a final starting treatment concentration of 1 mM.
(§6) Cells were exposed to BARB4 or cisplatin for a 24 hr period. The plates were incubated overnight at 37° C. At 24 hr and 48 hr post-treatment, the MTT assay was performed as described below.
(§7) The anti-proliferative activity of BARB4 and cisplatin was evaluated using the MTT cell proliferation assay (ATCC catalog #30-1010K). The assay is based on the reduction of yellow tetrazolium MTT (3-(4,5-dimethylthiazolyl-2)-2,5-diphenyltetrazolium bromide) by metabolically active cells forming purple formazan crystals. […]

[2] = system: COLO 205; conditions: EC50
Protocol: as §1, §2, §3, §4, §5, §6, §7

[3] = system: H460; conditions: EC50
Protocol: as §1, §2, §3, §4, §5, §6, §7

[4] = system: MDA-MB-231; conditions: EC50
Protocol: as §1, §2, §3, §4, §5, §6, §7

[5] = system: MIAPaCa-2; conditions: EC50
Protocol: as §1, §2, §3, §4, §5, §6, §7

[6] = BxPC-3, b280: really EC50 of total observed effect

B1: BARB4: human IgG antibody produced by hybridoma DSMZ Deposit No. DSM ACC2876; heavy chain SEQ ID NOs:1, 3, 5, 7, light chain SEQ ID NO:9 (antibody, V domains shown)
VH: QVQLVESGGGVVQPGRSLRLSCAASGFRFTTHGMHWVRQAPGKGLEWVAVISYNGRNKYYADYVNGRFTISRDDSRDTVFLQMNSLRPEDTAMYYCAKVRGDGYGDYGYFDYWGHGTLVSVSS
VL: QSALTQPRSVSGSPGQSVTISCTGTYNYVSWYQQHPGKAPKLMIFDVSRRSSGVPDRFSGSKSGNTASLTISGLQAEDEADYYCCSYGGTYLYVFGTGTTVTVLGQ
IC50, BA4 (24 hr) [1, 6]: >800 µg/mL
IC50, BA4 (48 hr) [1, 6]: >800 µg/mL
IC50, BA4 (24 hr) ([1]; BxPC-3 repeat, EC50): >800 µg/mL
IC50, BA4 (48 hr) ([1]; BxPC-3 repeat, EC50): >800 µg/mL
IC50, BA4 (24 hr) ([2]; MTT 24 hr post-treatment): 66.8 µg/mL
IC50, BA4 (48 hr) ([2]; MTT 48 hr post-treatment): 2.78 µg/mL
IC50, BA4 (24 hr) ([3]; MTT 24 hr post-treatment): 413 µg/mL
IC50, BA4 (48 hr) ([3]; MTT 48 hr post-treatment): >800 µg/mL
IC50, BA4 (24 hr) ([4]; MTT 24 hr post-treatment): 154 µg/mL
IC50, BA4 (48 hr) ([4]; MTT 48 hr post-treatment): 193 µg/mL
IC50, BA4 (24 hr) ([5]; MTT 24 hr post-treatment): 34.9 µg/mL
IC50, BA4 (48 hr) ([5]; MTT 48 hr post-treatment): 21.1 µg/mL
